Measured values reported in patent publication US20210317225A1 (Genmab, published 2021).

T1: Human CD137 shuffle 4 (amino acids 89-114 replaced by wild boar CD137) (human, amino acids 89-114 from wild boar, UniProt Q07011 24-255)
T1 construct: also called shuffle construct 4
T1 chain: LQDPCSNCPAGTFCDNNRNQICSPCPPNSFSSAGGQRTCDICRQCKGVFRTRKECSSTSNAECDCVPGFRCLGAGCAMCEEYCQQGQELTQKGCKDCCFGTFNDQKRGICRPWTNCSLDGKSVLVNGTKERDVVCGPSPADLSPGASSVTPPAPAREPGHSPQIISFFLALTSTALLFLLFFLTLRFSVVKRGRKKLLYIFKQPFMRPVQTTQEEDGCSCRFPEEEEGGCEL

T2: Human CD137 shuffle 5 (amino acids 48-88 replaced by African elephant CD137) (human, amino acids 48-88 from African …, UniProt Q07011 24-255)
T2 construct: also called shuffle construct 5
T2 chain: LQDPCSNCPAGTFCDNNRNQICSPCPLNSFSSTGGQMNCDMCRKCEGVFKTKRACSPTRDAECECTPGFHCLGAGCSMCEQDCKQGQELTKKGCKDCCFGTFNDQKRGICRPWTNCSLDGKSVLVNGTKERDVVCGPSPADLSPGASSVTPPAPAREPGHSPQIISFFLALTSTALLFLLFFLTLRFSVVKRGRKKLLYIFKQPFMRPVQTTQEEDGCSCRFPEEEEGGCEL

T3: Human CD137 shuffle 1 (amino acids 162-186 replaced by wild boar CD137) (human, amino acids 162-186 from wild …, UniProt Q07011 24-255)
T3 construct: also called shuffle construct 1
T3 chain: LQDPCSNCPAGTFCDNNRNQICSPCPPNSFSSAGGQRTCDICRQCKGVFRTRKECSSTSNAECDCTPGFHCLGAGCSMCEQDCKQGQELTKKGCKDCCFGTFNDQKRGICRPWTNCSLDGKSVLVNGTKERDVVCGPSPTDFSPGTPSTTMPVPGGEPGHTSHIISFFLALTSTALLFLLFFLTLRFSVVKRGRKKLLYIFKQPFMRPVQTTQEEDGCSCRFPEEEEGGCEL

T4: Human CD137 shuffle 2 (amino acids 139-161 replaced by wild boar CD137) (human, amino acids 139-161 from wild …, UniProt Q07011 24-255)
T4 construct: also called shuffle construct 2
T4 chain: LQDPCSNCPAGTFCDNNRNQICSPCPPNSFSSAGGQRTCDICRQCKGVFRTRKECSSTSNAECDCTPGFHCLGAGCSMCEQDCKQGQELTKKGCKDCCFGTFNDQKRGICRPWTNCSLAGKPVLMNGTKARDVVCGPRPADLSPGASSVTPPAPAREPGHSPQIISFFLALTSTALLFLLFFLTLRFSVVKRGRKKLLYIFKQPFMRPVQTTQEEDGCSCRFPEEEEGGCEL

T5: Human CD137 shuffle 3 (amino acids 115-138 replaced by wild boar CD137) (human, amino acids 115-138 from wild …, UniProt Q07011 24-255)
T5 construct: also called shuffle construct 3
T5 chain: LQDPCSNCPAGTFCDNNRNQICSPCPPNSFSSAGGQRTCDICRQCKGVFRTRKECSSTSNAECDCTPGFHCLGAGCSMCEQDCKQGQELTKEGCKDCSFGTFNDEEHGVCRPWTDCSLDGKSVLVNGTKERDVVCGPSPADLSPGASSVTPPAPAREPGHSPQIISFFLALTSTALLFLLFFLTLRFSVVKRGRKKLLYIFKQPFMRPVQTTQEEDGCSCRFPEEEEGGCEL

B1: CD137 antibody clone 003 (rabbit) (antibody, human IgG1, kappa, V domains shown)
VH: QSVEESGGRLVTPGTPLTLTCTASGFTISSYHMIWVRQAPGEGLEWIGDIYGGTATTDYASWAKGRFTISKTSTTVDLKMTSLTTEDTATYFCARARYSGGSYANYVFNLWGQGTLVTVSS
VL: DIVMTQTPASVEAAVGGTVTIKCQASQSISSYLAWYQQKPGQPPKLLIYRTSTLESGVPSRFKGSGSGTEFTLTISDLESADAATYYCQGYDWSSSNRYDNTFGGGTEVVVKR
notes: also called Clone 3; CD137 clone 003
B2: CD137 antibody clone 007 (rabbit) (antibody, human IgG1, kappa, V domains shown)
VH: QSLEESGGRLVTPGTPLTLTCTASGFSLSSYDVSWVRQAPGKGLEYIGFIGSDGSAHYATWVKGRFTISKTSTTVDLKITSPTTEDTATYFCARDWNDYWAHDLWGPGTLVTVSS
VL: AQVLTQTTSPVSAAVGGTVTINCQASQIVTSKSALSWYQQKPGQPPRLLIYKASTLASGVPSRFSGSGSGTQFTLTISDLESDDAATYYCAGGYYNSGDLNPFGGGTEVVVKR
notes: also called Clone 7; CD137 clone 007
B3: CD137 antibody clone 008 (rabbit) (antibody, human IgG1, kappa, V domains shown)
VH: QSLEESGGRLVTPGTPLTLTCTASGFSLSSYDMSWVRQAPGKGLEYIGYISSSGNTYYASWAKSRFTISKTSTTVDLKITSPTTEDTATYFCAREGDYWDFNLWGPGTLVTVSS
VL: AQVLTQTPSSVSAAVGGTVTINCQASQSISNLLAWYQQKPGQRPRLLIYRASTLASGVPSRFKGSGSGTEFTLTISDLESEDAATYYCAGGFPGLDTGATFGGGTEAVVTR
notes: also called Clone 8; CD137 clone 008
B4: CD137 antibody clone 006 (rabbit) (antibody, human IgG1, kappa, V domains shown)
VH: QSVEESGGRLVTPGTPLTLTCTVSGFSLSSYAMSWVRQAPGKGLEWIGIISTSGITYYASWAKGRFTISKTSTMVDLKITSPTTEDTATYFCARLNGFDDYVRYFDFWGLGTLVTVSS
VL: AIELTQTPSSVSAAVGGTVTINCQASESIASNLAWYQQKPGQPPKLLIYAASYLASGVPSRFKGSGSGTEYTLTISGVQSADAATYYCQSAFYVSSSDNAFGGGTEVVVKR
notes: also called Clone 6; CD137 clone 006
B5: CD137 antibody clone 002 (rabbit) (antibody, human IgG1, kappa, V domains shown)
VH: QSVEESGGRLVTPGTPLTLTCTVSGFSLTYYAVTWVRQPPGKGLEWIGVIYDNGATAFATWAKGRFTMSKNSTTVALKVTSPTTEDTATYFCARSANNAWSTYSNLWGQGTLVTVSS
VL: DIVMTQTPSSVSAAVGGTVTINCQASEDISSYLSWYQQKLGQPPKLLIYKASTLESGVPSRFKGSGSGTEYTLTISDLESDDAATYYCQSYYSGSISGYGFVFGGGTGVVVKR
notes: also called Clone 2; CD137 clone 002
B6: CD137 antibody clone 001 (rabbit) (antibody, human IgG1, kappa, V domains shown)
VH: QSVEESGGRLVTPGTPLTLTCTVSGFSLSSYAVSWVRQAPGKGLEWIGVIWNNGATHYATWAKGRFTISKASTTVDLKVTSPTTEDTATYFCARSANDAWSTYSDLWGQGTLVTVSS
VL: DIVMTQTPASVEAAVGGTVTIKCQASQTITNYLSWYQQKPGQPPKLLIYKASTLTSGVSSRFKGSGSGTEFTLTISDLESDDAATYYCQNYYYGSSSGYGFVFGGGTEVVVKR
notes: also called Clone 1; CD137 clone 001
B7: CD137 antibody clone 012 (rabbit) (antibody, human IgG1, kappa, V domains shown)
VH: QSVEESGGRLVTPGTPLTLTCTVSGFSLSDYYMTWVRQAPGKGLEYIGIMSGSGSTYYASWAKGRFTISKTSSTTLELKITSPTTEDTAIYFCARDGDYAGWGYATGAFDPWGPGTLVTVSS
VL: AAVLTQTPSPVSAAVGGTVTISCQASQSVVGNSLLSWFQKKPGQPPKLLIYSASSLASGVPSRFKGSGSGTQFTLTISDLESDDAATYYCTGRYNSDTDTFVFGGGTEVVVKR
notes: also called Clone 12; CD137 clone 012

Molecular target: T1, Human CD137 shuffle 4 (amino acids …)
Experiment: flow cytometry on transfected HEK293T-17 cells
Protocol: (§1) 3×10⁶ HEK293T-17 cells were seeded in T75 culture flasks (Greiner Bio-One, cat. no. 658175) in 20 mL RPMI 1640 GlutaMAX medium containing 10% FCS (Biochrom, cat. no. S 0115). After O/N incubation, cells were transiently […] with expression vectors encoding the shuffle constructs or the wild boar, African elephant or human CD137 downstream of a constitutively active human elongation factor-1 alpha (EF-1 alpha) promotor using TransIT®-LT1 Transfection Reagent, Mirus Bio (VWR International, cat. no. 731-0029), according to the manufacturer's instructions. The next day, cells were harvested using 1.5 mL Accutase (Sigma Aldrich, cat. no. A6964) (incubation at 37° C. for 5 min.) and flow cytometry was performed, essentially as described in Example 4, to measure surface expression of the shuffle constructs and the human, African elephant and wild boar CD137 and to measure binding of the antibody clones to the different shuffle constructs. To measure cell surface expression of the constructs, transduced cells were incubated with 1 μg/mL goat polyclonal anti-human CD137 (R&D Systems, cat. no. AF838) in FACS buffer (D-PBS supplemented with 5 mM EDTA [Sigma Aldrich, cat. no. 03690] and 5% (v/v) fetal bovine serum [FBS, Biochrom, cat. no. S 0115]) (4° C., 20 min.), followed by incubation with APC-labeled anti-goat IgG (H+L) (R&D Systems, cat. no. F0108) (4° C., 20 min.). Binding of the different CD137 antibody clones to cells expressing the shuffle constructs was measured by incubation of the transduced cells with 1 μg/mL of the antibody clones, followed by APC-labeled AffiniPure F(ab′)2 Fragment (1:50 final dilution; Jackson, cat. no. 109-136-127).

Row | binding result | Binder
1 | no binding (tested: 1 µg/mL) | B1
2 | no binding (tested: 1 µg/mL) | B2
3 | no binding (tested: 1 µg/mL) | B3

Molecular target: T2, Human CD137 shuffle 5 (amino acids …)
Experiment: flow cytometry on transfected HEK293T-17 cells
Protocol: as §1

Row | binding result | Binder
4 | no binding (tested: 1 µg/mL) | B4
5 | no binding (tested: 1 µg/mL) | B5

Molecular target: T3, Human CD137 shuffle 1 (amino acids …)
Experiment: flow cytometry on transfected HEK293T-17 cells, 1 µg/mL antibody
Protocol: as §1

Row | binding result | Binder
6 | binds | B4
7 | binds | B6
8 | binds | B5
9 | binds | B1
10 | binds | B7
11 | binds | B2
12 | binds | B3

Molecular target: T4, Human CD137 shuffle 2 (amino acids …)
Experiment: as above
Protocol: as §1

Row | binding result | Binder
13 | binds | B4
14 | binds | B6
15 | binds | B5
16 | binds | B1
17 | binds | B7
18 | binds | B2
19 | binds | B3

Molecular target: T5, Human CD137 shuffle 3 (amino acids …)
Experiment: as above
Protocol: as §1

Row | binding result | Binder
20 | binds | B4
21 | binds | B6
22 | binds | B5
23 | binds | B1
24 | binds | B7
25 | binds | B2
26 | binds | B3

Molecular target: T1, Human CD137 shuffle 4 (amino acids …)
Experiment: as above
Protocol: as §1

Row | binding result | Binder
27 | binds | B4
28 | binds | B6
29 | binds | B5
30 | binds | B7

Molecular target: T2, Human CD137 shuffle 5 (amino acids …)
Experiment: as above
Protocol: as §1

Row | binding result | Binder
31 | binds | B6
32 | binds | B1
33 | binds | B7
34 | binds | B2
35 | binds | B3

What follows are binders tested against T6, Human CD137 (TNR9_Human) (human, UniProt Q07011 24-255) (assay: flow cytometry, HEK293-T17 cells transiently transfected with human CD137, antibody at 1 µg/mL, APC-labeled F(ab')2 secondary).
T6 construct: Full-length human CD137 expressed on HEK293T-17, NF-kB/293/GFP-Luc or K562 cells, or native on T cells; also called hCD137 wt; 4-1BB
Protocol: (§2) FIG. 4: Binding of CD137 antibody clones to CD137 shuffle constructs expressed on HEK293-T17 cells. HEK293-T17 cells were transfected with the CD137 shuffle constructs, and with human CD137 (hCD137 wt), African elephant of wild boar CD137, as indicated. Binding of the different CD137 antibody clones to these constructs expressed on HEK293-T17 cells was measured by flow cytometry. Staining with polyclonal anti-CD137 antibody is shown as a control.
Target sequence in this assay (Q07011 24-255): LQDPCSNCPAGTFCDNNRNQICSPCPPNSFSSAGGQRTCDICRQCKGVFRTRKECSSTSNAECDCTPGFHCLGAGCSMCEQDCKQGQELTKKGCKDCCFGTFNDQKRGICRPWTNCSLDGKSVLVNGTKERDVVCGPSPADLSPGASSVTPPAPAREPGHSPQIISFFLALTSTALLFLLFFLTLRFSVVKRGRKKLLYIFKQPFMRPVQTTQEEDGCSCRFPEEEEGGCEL
as §1

Row | binding result | Binder
36 | binds | B4
37 | binds | B6
38 | binds | B5
39 | binds | B1

These binders were tested against T6, Human CD137 (TNR9_Human) (assay: flow cytometry, HEK293-T17 cells transiently transfected with human CD137, antibody at 1 µg/mL, APC-labeled F(ab')2 secondary [cont.]).
Protocol: as §2, §1

Row | binding result | Binder
40 | binds | B7
41 | binds | B2
42 | binds | B3
